B1: CHMP4C (parent)
chain: TNIRLPNVPSSSLPAQPNRKPGMS
B2: SCNN1D (parent)
chain: RRPSPVLRHLELLDEFARENIDSL

Variants of: B1
Experiment: protein stability index of a GFP-peptide fusion (GPS, HEK-293T) (PSI 1-6); higher = more stable
Details: c terminus: a fixed tail appended
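Also: lentivirally expressed fusions sorted by FACS into six bins by GFP to DsRed ratio, PSI derived from sequencing read proportions per bin multiplied by bin number.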

Protein stability index: each site, then its substitutions
P9: Y 3.62; L 3.85; V 4.71; W 3.53; S 4.68; G 4.52; N 4.89; E 4.94; A 4.62; T 4.55; H 4.49; D 4.77; M 4.36; Q 5.12; R 4.45; C 4.33; F 4.22; K 4.78; I 4.3
S10: R 4.06; C 4.83; T 4.1; G 4.75; Y 4.22; K 4.24; A 4.62; L 4.09; I 4.6; E 4.51; D 4.84; H 4.76; Q 4.73; W 4.46; N 3.58; M 4.48; V 4.2; P 4.39; F 4.05
P17: N 4.72; T 4.75; E 4.96; A 3.6; M 4.56; S 4.21; F 4.24; G 4.71; W 3.64; H 4.26; Q 3.82; Y 4.05; I 3.87; D 4.35; V 4.67; R 4.2; L 4.14; K 4.61; C 3.76
A15: D 4.75; I 4.34; P 4.71; Q 5.06; M 4.16; Y 4.26; K 4.58; R 4.71; G 4.69; V 4.59; S 4.56; C 4.54; W 4.01; F 4.21; T 4.55; L 4.19; N 4.44; H 4.59; E 4.64
M23: N 5.13; Y 4.7; F 4.42; I 4.37; R 4.04; T 5.17; K 4.37; Q 5.23; W 3.96; E 5.61; C 4.84; V 4.82; H 4.92; L 4.88; D 5.58; S 5.17; G 5.2; A 5.03; P 4.28
Q16: F 4.05; D 4.24; K 4.03; W 3.34; E 4.69; G 4.51; T 4.53; Y 3.99; M 3.7; L 4.32; V 4.71; I 4.35; N 4.73; S 4.91; P 4.94; C 4.39; R 5.25; A 4.7; H 4.44
S11: W 3.97; F 4.12; V 4.13; T 3.48; D 4.94; M 3.73; K 4.49; C 4.86; R 4.79; I 4.68; H 4.6; L 4.01; N 4.19; P 4.61; E 4.1; G 4.51; Q 4.53; A 4.87; Y 4.28
V8: W 4.19; K 4.63; H 4.77; N 4.58; Y 4.02; M 4.61; T 4.69; D 4.54; Q 4.43; L 4.4; R 4.42; S 4.49; P 5.05; I 4.76; G 4.47; A 4.51; C 3.99; F 4.29; E 5.14
L13: C 4.47; R 4.82; S 4.76; N 4.52; M 4.6; G 4.27; K 4.46; A 4.88; D 4.4; V 4.88; W 4.45; H 4.25; E 4.25; T 5.11; F 4.35; I 4.54; Y 4.1; Q 4.09
P21: A 5; G 4.31; N 4.11; W 3.4; Q 4.96; M 4.32; Y 4.05; K 4.65; R 4.94; D 4.59; V 4.14; S 4.41; H 4.45; T 4.47; L 4.29; C 4.24; E 4.5; F 4.32; I 4.31
R19: E 4.86; L 4.58; I 4.61; W 3.6; S 4.71; F 4.13; Q 4.62; V 4.71; N 4.69; K 4.33; G 4.49; D 4.66; T 4.57; A 4.61; H 4.33; C 4.27; Y 3.94; P 4.77; M 4.37
S12: P 4.34; D 4.67; K 4.44; A 4.51; W 3.25; C 4.18; V 4.8; R 4.51; F 4.29; Y 4.12; L 3.44; N 4.68; G 4.27; I 4.56; H 4.35; E 5.06; Q 4.66; M 4.33; T 4.07
K20: L 4.41; W 3.41; N 4.41; G 4.39; T 3.92; R 4.4; M 3.75; I 3.61; S 4.56; F 3.79; Q 4.55; V 3.66; D 4.44; P 3.77; E 4.27; A 4.43; Y 4.02; C 4.3; H 4.4
N18: T 4.89; G 4.25; D 4.51; L 4.25; W 3.42; F 4.33; I 4.3; Q 4.87; H 4.85; Y 4.36; R 4.69; E 4.41; M 4.66; K 4.62; C 3.97; S 4.21; P 4.58; A 4.45; V 4.6
N7: S 4.89; V 4.45; T 4.95; Y 4.13; W 4.11; R 4.41
P14: D 4.5; F 4.22; I 4.22; T 4.39; A 4.14; G 4.67; R 4.4; Q 4.98; N 4.41; C 3.94; M 4.47; W 4.01; H 4.37; L 4.19; Y 3.67; E 4.7; S 4.69; V 4.93; K 4.39
S24: M 3.99; E 4.83; G 4.14; I 4.27; K 4.94; D 3.96; P 4.81; L 4.15; Y 4.34; N 4.57; W 3.8; V 4.86; H 4.5; F 4.21; C 4.2; T 4.62; Q 4.69; A 4.48; R 4.67
G22: N 5.03; L 4.22; Y 4.01; T 4.21; A 4.48; D 4.78; R 4.92; E 4.68; V 4.29; S 4.08; F 4.2; P 4.24; I 4.39; M 4.2; W 3.75; C 4.4; Q 4.88; H 4.32; K 4.64

Variants of: B2
Experiment: as above
Details: c terminus: a fixed tail appended

Protein stability index of substitutions, site by site:
R1: L 2.21
S23: V 2.45
E19: K 2.74
H9: V 2.4
E11: R 2.96
L13: C 3.57

Reference: the supplement of paper PMC10567573
